{"source": "paper PMC3843637", "binders": {"B1": {"name": "MAN1 fragment from amino acids 755 to 911 (MAN1Luhm) (domain or fragment)", "chain": "DKILVIPSKVWQGQAFHLDRRNSPPNSLTPCLKIRNMFDPVMEIGDQWHLAIQEAILEKCSDNDGIVHIAVDKNSREGCVYVKCLSPEYAGKAFKALHGSWFDGKLVTVKYLRLDRYHHRFPQALTSNTPLKPSNKHMNSMSHLRLRTGLTNSQGSS"}}, "key": {"[1]": {"target": "phosphomimetic Smad3 fragment S3LMH2EEE (linker and MH2 domain, amino acids 167 to 425) (human) (UniProt P84022)", "assay": "ITC"}, "[2]": {"target": "S3LMH2EEE/S4LMH2 heterotrimer (human) (UniProt P84022)", "assay": "ITC"}}, "note": "Several values for one entry are separate records, joined by “and”; a condition that tells them apart may be missing. Equal values may be shown once.", "data": [{"binder": "B1", "values": [{"measurement": "Kd", "setting": "[1]", "value": "1170 nM and 1350 nM"}, {"measurement": "Kd", "setting": "[2]", "value": "1500 nM and 1370 nM"}]}]}
